Ten molecules from patent US20100145006A1, “SUPRAVALENT COMPOUNDS” (priority 2005, published 2010) can be followed below.

In assay [1] the test system is TF-1 Cells. The assay can be described thus: Proliferation assay with TF-1 cells by MTT (printed MU), peptide monomers. The assay is classed as cell-based, human. To be noted: TF-1 proliferation, MTT-assay data, GraphPad dose-response. As to the method: Proliferation Assay with TF-1 Cells by MU
TF-1 Cells in logarithmic growth phase (˜2.10^5-1.10^6 cells/ml; RPMI medium; 20% fetal calf serum; supplemented with Penicillin, streptomycin, L-Glutamine; 0.5 ng/ml Interleukin 3) are washed (centrifuge 5 min. 1500 rpm and resuspended in RPMI complete without IL3 at 500.000 cells/ml) and precultured before start of the assay for 24 h without IL-3. At the next day the cells are seeded in 24- or 96-well plates usually using at least 6 concentrations and 4 wells per concentration containing at least 10.000 cells/well per agent to be tested. Each experiment includes controls comprising recombinant EPO as a positive control agent and wells without addition of cytokine as negative control agent. […]
At day 4, prior to start of the analysis, a dilution series of a known number of TF-1 cells is prepared in a number of wells (0/2500/5000/10000/20000/50000 cells/well in 100 μl medium). These wells are treated in the same way as the test wells and later provide a calibration curve from which cell numbers can be determined. […] 25 μl of 10% sodium dodecyl sulfate in water are added to each well prior to measurement E492 in an ELISA Reader.
Using graphical evaluations as shown in FIGS. 17 and 18 based on calculations of the dose-response relationship using the program GraphPad the following EC50 values were determined on the basis of MU-assay data: […]
On the technique in general: Tetrazolium dyes change colour on reduction, which living cells bring about.

The subject of assay [2] is TF-1 Cells. As to the kind of experiment: TF-1 proliferation assay (MTS, viable cell number), EPO-like activity. The assay is classed as cell-based, human. The settings on record: normalized plots. The method, then: An experiment was performed in a standard TF-1 cell assay as recommended by the European Pharmacopoe for the determination of EPO-like activity in vitro (please also see below). Basically, TF-1 cells (their proliferation being dependent from the presence of EPO-like activity) are cultured in the presence various concentrations of EPO or EPO-mimetic substances. The resulting cell numbers are quantified using colorimetric MTT-assay and photometric measurements.
In a TF-1 proliferation assay, TF-1 cells are seeded and cultured for several days in varying concentrations of EPO or EPO mimetic peptides in a multi-well plate.
For optimal results TF-1 cells should be cultured for two days in the absence of any cytokine (starved) before starting the assay. Three days after starting the assay, cell proliferation is measured indirectly by assaying the number of viable cells.
A tetrazolium reagent, called MTS, is added which is reduced to coloured formazan. This reaction depends on NADH and NADPH, in other words depends on mitochondrial activity. The amount of formazan is measured spectrophotometrically. Using a range of known cell numbers for calibration, it is possible to determine the absolute number of viable cells present under each condition. The principal design is also illustrated in FIG. 24.
The activity of a certain agent in this assay is determined by: • 1. assessing whether this agent causes an increase in the number of viable cells at a certain concentration, and • 2. at which concentration this agent exerts a half-maximum effect (determination of the EC50).

For assay [3], the target named is T1, erythropoietin receptor (EPOR) on human TF-1 cells (human, UniProt P19235 25-508).
T1 sequence (looked up): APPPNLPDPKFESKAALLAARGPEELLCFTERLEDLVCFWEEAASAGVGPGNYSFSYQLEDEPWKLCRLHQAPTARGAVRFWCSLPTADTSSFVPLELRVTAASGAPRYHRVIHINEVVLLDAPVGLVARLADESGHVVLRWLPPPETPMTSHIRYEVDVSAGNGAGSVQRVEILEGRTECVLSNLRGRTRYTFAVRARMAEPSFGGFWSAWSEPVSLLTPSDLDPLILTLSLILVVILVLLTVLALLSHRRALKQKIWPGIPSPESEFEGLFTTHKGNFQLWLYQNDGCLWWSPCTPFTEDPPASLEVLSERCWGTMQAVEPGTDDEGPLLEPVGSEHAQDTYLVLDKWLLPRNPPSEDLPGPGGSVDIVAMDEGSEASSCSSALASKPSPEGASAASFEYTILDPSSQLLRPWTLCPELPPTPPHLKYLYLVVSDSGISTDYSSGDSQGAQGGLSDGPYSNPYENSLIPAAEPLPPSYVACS
The assay can be described thus: cell-based or functional assay.

Bridges are numbered along the chain shown (N, C = ends). Where no end group is shown, it is not given here. Side-chain parts run from the residue outwards. [ ]: non-standard residue; d: D form. 1Nal = N[C@@H](Cc1cccc2ccccc12)C(=O)O

As to GGTYSCHFGGLTWVCKPQGG, the “EC50 values of exemplary peptide monomers” value in the assay on TF-1 Cells [1] was “no activity”.

For the molecule “GGTYSCHFGKLTWVCKKQGG [SEQ ID NO 2, EPO mimetic peptide monomer]”, the “efficacy and potency compared with other EPO mimetic peptides” value with TF-1 Cells [2] is “in the same range as EMP1”.

Regarding “AGEM40_HES: peptide (AGEM40) HESylated according to the supravalence principle (Ac-C([maleimide-HES 130 kD])GGTYSCHFGKLT[1Nal]VCKKQRGGGTYSCHFGKLT[1Nal]VCKKQRG-NH2; disulfide 7-16, 27-36 (inferred))”, in the assay on TF-1 Cells [2], the “efficacy and potency compared with other EPO mimetic peptides” value is “highly effective and potent”.

Consider “Ac-GGTYSCHFGKLT-Na1-VCKKQRG-Am (Ac-GGTYSCHFGKLT[1Nal]VCKKQRG-NH2; cysteine pairing not given here) [BB68]”, for which the “efficacy and potency compared with other EPO mimetic peptides” value in the assay on TF-1 Cells [2] was “even more effective than EMP1 and 8849”; in the assay with TF-1 Cells [2] (listed as B868) it was “improved effect”.

Regarding GGTYSCHFGPLTWVCKKQGG (disulfide 6-15 (inferred)) [peptide GGTYSCHFGPLTWVCKKQGG], in assay [3], the “EC50, TF-1 cell proliferation (MTT assay)” value (“EC50 … (MTT assay)” below) was 2.52 µM.

Turning to GGTYSCHFGRLTWVCKKQGG (disulfide 6-15 (inferred)) [SEQ ID NO 6 peptide GGTYSCHFGRLTWVCKKQGG], in assay [3], the “EC50 … (MTT assay)” value was 4.97 µM.

On to Ac-GGTYSCHFGKLTWVCKKQGG (disulfide 6-15 (inferred)) [SEQ ID NO 2 peptide GGTYSCHFGKLTWVCKKQGG (BB49, monomer)], for which the “EC50 … (MTT assay)” value in assay [3] stood at 3.28 µM.

GGTYSCHFGRLTWVCKPQGG (disulfide 6-15 (inferred)) [SEQ ID NO 5 peptide GGTYSCHFGRLTWVCKPQGG]: the “EC50 … (MTT assay)” value in assay [3] is 5.16 µM.

In the case of GGTYSCHFAKLTWVCKKQGG (disulfide 6-15 (inferred)) [peptide GGTYSCHFAKLTWVCKKQGG], the “EC50 … (MTT assay)” value in assay [3] turned out to be 5.04 µM.

With GGTYSCHFGKLTWVCKPQGG (disulfide 6-15 (inferred)) [SEQ ID NO 4 peptide GGTYSCHFGKLTWVCKPQGG], the “EC50 … (MTT assay)” value in assay [3] was determined as 4.66 µM.
